The source of these data is paper PMC11950179 (Nature Communications, 2025).

This data set concerns the molecule itself. The data set can be described thus: cryo-EM structure.

B1: human phosphorylase kinase β subunit (PHKB), phosphorylated (natural protein, UniProt Q93100 1-1093, looked up)
chain: MAGAAGLTAEVSWKVLERRARTKRSGSVYEPLKSINLPRPDNETLWDKLDHYYRIVKSTLLLYQSPTTGLFPTKTCGGDQKAKIQDSLYCAAGAWALALAYRRIDDDKGRTHELEHSAIKCMRGILYCYMRQADKVQQFKQDPRPTTCLHSVFNVHTGDELLSYEEYGHLQINAVSLYLLYLVEMISSGLQIIYNTDEVSFIQNLVFCVERVYRVPDFGVWERGSKYNNGSTELHSSSVGLAKAALEAINGFNLFGNQGCSWSVIFVDLDAHNRNRQTLCSLLPRESRSHNTDAALLPCISYPAFALDDEVLFSQTLDKVVRKLKGKYGFKRFLRDGYRTSLEDPNRCYYKPAEIKLFDGIECEFPIFFLYMMIDGVFRGNPKQVQEYQDLLTPVLHHTTEGYPVVPKYYYVPADFVEYEKNNPGSQKRFPSNCGRDGKLFLWGQALYIIAKLLADELISPKDIDPVQRYVPLKDQRNVSMRFSNQGPLENDLVVHVALIAESQRLQVFLNTYGIQTQTPQQVEPIQIWPQQELVKAYLQLGINEKLGLSGRPDRPIGCLGTSKIYRILGKTVVCYPIIFDLSDFYMSQDVFLLIDDIKNALQFIKQYWKMHGRPLFLVLIREDNIRGSRFNPILDMLAALKKGIIGGVKVHVDRLQTLISGAVVEQLDFLRISDTEELPEFKSFEELEPPKHSKVKRQSSTPSAPELGQQPDVNISEWKDKPTHEILQKLNDCSCLASQAILLGILLKREGPNFITKEGTVSDHIERVYRRAGSQKLWLAVRYGAAFTQKFSSSIAPHITTFLVHGKQVTLGAFGHEEEVISNPLSPRVIQNIIYYKCNTHDEREAVIQQELVIHIGWIISNNPELFSGMLKIRIGWIIHAMEYELQIRGGDKPALDLYQLSPSEVKQLLLDILQPQQNGRCWLNRRQIDGSLNRTPTGFYDRVWQILERTPNGIIVAGKHLPQQPTLSDMTMYEMNFSLLVEDTLGNIDQPQYRQIVVELLMVVSIVLERNPELEFQDKVDLDRLVKEAFNEFQKDQSRLKEIEKQDDMTSFYNTPPLGKRGTCSYLTKAVMNLLLEGEVKPNNDDPCLIS
modifications: phosphorylated by PKAc; phosphoserine at Ser12, Ser27 and Ser701
In the case of B1, the binding result is on record as “binds”.
